Data as given in patent US20180155451A1 (published 2018).

T1: FcγRIIb extracellular domain with C-terminal His tag (human, UniProt P31994 43-217)
T1 construct: extracellular domain; Soluble receptor expressed in FreeStyle293 cells, used as analyte in Biacore; also called FcgRIIb; 2b; not shown: His tag at the C terminus
T1 sequence (looked up): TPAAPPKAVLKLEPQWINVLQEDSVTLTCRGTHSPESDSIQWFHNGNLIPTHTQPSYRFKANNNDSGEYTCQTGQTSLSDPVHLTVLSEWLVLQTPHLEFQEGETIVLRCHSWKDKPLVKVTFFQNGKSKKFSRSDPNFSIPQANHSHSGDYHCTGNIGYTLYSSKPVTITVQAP

T2: FcγRIIb (human, UniProt P31994 43-217)
T2 construct: extracellular domain; also called FcgRIIb; 2b; not shown: His tag at the C terminus
T2 sequence (looked up): T1 sequence (looked up)

B1: GpH7-A5/GpH7-B3 variant N325_04F/GpL16-k0 (antibody, human IgG1, kappa)
heavy 1: not shown
heavy 2: not shown
light: DIVMTQSPLSLPVTPGEPASISCQASESLVHSNRNTYLHWYLQKPGQSPQLLIYKVSNRFSGVPDRFSGSGSGTDFTLKISRVEAEDVGVYYCSQNTHVPPTFGQGTKVEIERTVAAPSVFIFPPSDEQLKSGTASVVCLLNNFYPREAKVQWKVDNALQSGNSQESVTEQDSKDSTYSLSSTLTLSKADYEKHKVYACEVTHQGLSSPVTKSFNRGEC
notes: heterodimerized IgG1; alteration in the GpH7-B3 H chain only; also called He Ab
B2: GpH7-A5/GpH7-B3 variant A330_05P/GpL16-k0 (antibody, human IgG1, kappa)
heavy 1: not shown
heavy 2: not shown
light: B1 light
notes: as for B1
B3: GpH7-A5/GpH7-B3 variant L328_20W/GpL16-k0 (antibody, human IgG1, kappa)
heavy 1: not shown
heavy 2: not shown
light: B1 light
notes: as for B1
B4: GpH7-A5/GpH7-B3 variant I332_10E/GpL16-k0 (antibody, human IgG1, kappa)
heavy 1: not shown
heavy 2: not shown
light: B1 light
notes: as for B1
B5: GpH7-A5/GpH7-B3 variant L328_15Y/GpL16-k0 (antibody, human IgG1, kappa)
heavy 1: not shown
heavy 2: not shown
light: B1 light
notes: as for B1
B6: GpH7-A5/GpH7-B3 variant P331_16H/GpL16-k0 (antibody, human IgG1, kappa)
heavy 1: not shown
heavy 2: not shown
light: B1 light
notes: as for B1
B7: GpH7-A5/GpH7-B3 variant N325_07I/GpL16-k0 (antibody, human IgG1, kappa)
heavy 1: not shown
heavy 2: not shown
light: B1 light
notes: as for B1
B8: GpH7-A5/GpH7-B3 variant A327_10E/GpL16-k0 (antibody, human IgG1, kappa)
heavy 1: not shown
heavy 2: not shown
light: B1 light
notes: as for B1
B9: GpH7-A5/GpH7-B3 variant N325_08L/GpL16-k0 (antibody, human IgG1, kappa)
heavy 1: not shown
heavy 2: not shown
light: B1 light
notes: as for B1
B10: GpH7-A5/GpH7-B3 variant L328_14T/GpL16-k0 (antibody, human IgG1, kappa)
heavy 1: not shown
heavy 2: not shown
light: B1 light
notes: as for B1
B11: GpH7-A5/GpH7-B3 variant L328_10E/GpL16-k0 (antibody, human IgG1, kappa)
heavy 1: not shown
heavy 2: not shown
light: B1 light
notes: as for B1
B12: GpH7-A5/GpH7-B3 variant P331_08L/GpL16-k0 (antibody, human IgG1, kappa)
heavy 1: not shown
heavy 2: not shown
light: B1 light
notes: Heterodimerized anti-glypican-3 IgG1; P331L (EU) only in the GpH7-B3 chain; also called He Ab
B13: GpH7-A5/GpH7-B3 variant P331_10E/GpL16-k0 (antibody, human IgG1, kappa)
heavy 1: not shown
heavy 2: not shown
light: B1 light
notes: Heterodimerized anti-glypican-3 IgG1; P331E (EU) only in the GpH7-B3 chain; also called He Ab
B14: GpH7-A5/GpH7-B3 variant P331_11K/GpL16-k0 (antibody, human IgG1, kappa)
heavy 1: not shown
heavy 2: not shown
light: B1 light
notes: Heterodimerized anti-glypican-3 IgG1; P331K (EU) only in the GpH7-B3 chain; also called He Ab

What follows are binders tested against T3, FcγRIa (human, UniProt P12314 16-292) (assay: SPR (Biacore); He/Con_1a (FcγRIa) divided by He/Con_2b (FcγRIIb)).
T3 construct: extracellular domain; also called FcgRI; 1a; not shown: His tag at the C terminus
T3 sequence (P12314 16-292): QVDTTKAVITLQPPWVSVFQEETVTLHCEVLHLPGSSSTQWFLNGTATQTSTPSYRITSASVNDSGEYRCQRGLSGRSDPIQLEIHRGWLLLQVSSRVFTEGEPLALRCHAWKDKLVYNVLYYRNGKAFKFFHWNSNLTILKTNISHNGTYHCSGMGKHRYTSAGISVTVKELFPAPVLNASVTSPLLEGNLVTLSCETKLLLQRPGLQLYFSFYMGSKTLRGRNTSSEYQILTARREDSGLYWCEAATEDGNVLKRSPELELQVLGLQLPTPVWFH

Ia/IIb He_1a/2b [ratio]	Binder
0.65	B1
0.74	B2
0.44	B3
0.68	B4
0.53	B5
0.8	B6
0.55	B7
0.74	B8
0.5	B9
0.71	B10
0.59	B11

These binders were tested against T4, FcγRIIIa extracellular domain with C-terminal His tag (human, UniProt P08637 17-208) (assay: SPR; He/Con_3a divided by He/Con_2b (FcγRIIIa over FcγRIIb)).
T4 construct: extracellular domain; also called FcgRIIIa; 3a; not shown: His tag at the C terminus
Protocol: (§1) Analysis of interaction between objective antibody and the FcγR was carried out using Biacore T100 (GE Healthcare). HBS-EP+ (GE Healthcare) was used as the running buffer, and the measurement temperature was set to 25° C. Chips produced by immobilizing the antigen peptide by the amine coupling method to a Series S Sencor Chip CM5 (GE Healthcare), or alternatively, chips produced by allowing preliminarily biotinylated antigen peptides to interact with and immobilize onto a Series S Sensor Chip SA (certified) (GE Healthcare) were used. Antibodies of interest were captured onto an antigen peptide-immobilized chip, and allowed to interact to each FcγR diluted with running buffer. To regenerate and repeatedly use the chip, the antibodies captured on the chip were washed off by reacting 10 mM glycine-HCl, pH 1.5.
(§2) The FcγR-binding activity of each antibody was assessed primarily using as an indicator the FcγR-binding activity and dissociation constant for FcγR.

T4 sequence (P08637 17-208): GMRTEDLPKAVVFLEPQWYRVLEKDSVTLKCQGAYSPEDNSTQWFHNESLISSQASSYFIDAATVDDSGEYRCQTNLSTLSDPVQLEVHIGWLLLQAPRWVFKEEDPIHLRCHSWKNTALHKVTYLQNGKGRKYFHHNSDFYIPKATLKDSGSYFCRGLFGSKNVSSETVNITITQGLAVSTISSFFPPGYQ

He_3a/2b (IIIa/IIb) [ratio]	Binder
0.75	B12
0.65	B13
0.8	B14

The binders below were run against T4, FcγRIIIa extracellular domain with … (assay: SPR (Biacore), antibody captured on antigen peptide chip, FcγR as analyte).
Protocol: as §1, §2

He/Con_3a	Binder
72.1 relative binding (GpH7-A5/GpH7-B3/GpL16-k0 = 100)	B12
75.1 relative binding (GpH7-A5/GpH7-B3/GpL16-k0 = 100)	B13
67.5 relative binding (GpH7-A5/GpH7-B3/GpL16-k0 = 100)	B14

Each binder was assayed against T1, FcγRIIb extracellular domain with … in the same assay as above.
Protocol: as §1, §2

He/Con_2b	Binder
95.7 relative binding (GpH7-A5/GpH7-B3/GpL16-k0 = 100)	B12
116 relative binding (GpH7-A5/GpH7-B3/GpL16-k0 = 100)	B13
84.7 relative binding (GpH7-A5/GpH7-B3/GpL16-k0 = 100)	B14

These binders were tested against T3, FcγRIa (assay: SPR (Biacore), antibody captured, FcγR as analyte; binding as % of GpH7-A5/GpH7-B3/GpL16-k0).

He/Con_1a	Binder
93.2 % of control	B1
101 % of control	B2
103 % of control	B3
96.3 % of control	B4
102 % of control	B5
92.4 % of control	B6
94.8 % of control	B7
103 % of control	B8
97.5 % of control	B9
100 % of control	B10
101 % of control	B11

What follows are binders tested against T2, FcγRIIb in the same assay as above.

He/Con_2b	Binder
143 % of control	B1
137 % of control	B2
235 % of control	B3
142 % of control	B4
193 % of control	B5
116 % of control	B6
171 % of control	B7
140 % of control	B8
197 % of control	B9
141 % of control	B10
172 % of control	B11
